Test results reported in patent publication US7449563B2, “Methods and compositions for destabilizing microtubules” (Academia Sinica, priority 2003, dated 2008).
One block for each molecule: values may come before it.

Columns and labels:
Bovine brain α/β tubulin = biological target: T1, Bovine brain α/β tubulin (Bos taurus, UniProt P81947+Q6B856); test: In vitro microtubule sedimentation assay; type: biochemical; details: 15 μM tubulin; 40 μM polypeptide
T1 construct: Bovine brain α/β tubulin (15 μM; Cytoskeleton Inc., Denver, Colo.); purchased Cytoskeleton Inc., Denver, Colo; host or cells: bovine brain (tissue-purified)
T1 sequence (P81947 whole entry): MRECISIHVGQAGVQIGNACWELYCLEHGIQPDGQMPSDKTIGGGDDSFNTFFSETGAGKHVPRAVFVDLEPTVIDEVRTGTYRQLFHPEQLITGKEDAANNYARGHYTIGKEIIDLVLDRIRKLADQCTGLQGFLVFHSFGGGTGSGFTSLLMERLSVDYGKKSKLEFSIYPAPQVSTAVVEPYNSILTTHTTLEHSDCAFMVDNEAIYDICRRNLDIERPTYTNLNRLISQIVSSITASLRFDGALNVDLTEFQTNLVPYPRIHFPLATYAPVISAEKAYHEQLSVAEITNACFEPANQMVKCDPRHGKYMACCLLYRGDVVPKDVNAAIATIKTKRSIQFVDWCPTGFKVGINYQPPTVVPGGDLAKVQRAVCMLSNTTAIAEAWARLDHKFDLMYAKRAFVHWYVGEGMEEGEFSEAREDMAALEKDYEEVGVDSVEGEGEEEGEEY
T1 sequence (Q6B856 whole entry): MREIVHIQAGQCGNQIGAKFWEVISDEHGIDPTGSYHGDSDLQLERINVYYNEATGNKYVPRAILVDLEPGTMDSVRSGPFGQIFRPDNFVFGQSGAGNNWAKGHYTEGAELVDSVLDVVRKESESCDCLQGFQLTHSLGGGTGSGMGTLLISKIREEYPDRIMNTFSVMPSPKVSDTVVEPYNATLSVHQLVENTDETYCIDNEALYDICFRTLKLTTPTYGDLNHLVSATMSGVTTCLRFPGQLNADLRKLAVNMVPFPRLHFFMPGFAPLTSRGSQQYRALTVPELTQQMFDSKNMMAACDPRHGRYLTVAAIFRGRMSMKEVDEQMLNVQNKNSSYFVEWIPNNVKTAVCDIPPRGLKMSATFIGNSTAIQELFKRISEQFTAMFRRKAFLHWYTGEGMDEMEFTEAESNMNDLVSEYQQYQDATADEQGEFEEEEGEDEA
Method: In vitro Microtubule Sedimentation Assay
Bovine brain α/β tubulin (15 μM; Cytoskeleton Inc., Denver, Colo.) was pre-incubated with various amounts of truncated GST-CPAP proteins in a 50 μl reaction mixture comprising RG1 buffer (see Example 2) for 30 min at 37° C. Tubulin polymerization was initiated by adding 50 μl GMRG buffer (RG1 buffer supplemented with 12 mM MgCl2 and 50% glycerol), then incubating the reaction mixtures at 37° C. for 1.5 hr.
The reaction mixtures were then subjected to centrifugation at 300,000×g for 15 min at 37° C., in a TL-100 ultracentrifuge (Beckman Instruments, Fullerton, Calif.). Supernatants (S) and pellets (P) were analyzed by SDS-PAGE followed by staining with Coomassie blue.
Microtubule disassembly was confirmed using the microtubule sedimentation assay. Following centrifugation of the reaction mixtures, relatively soluble tubulin monomers and small multimers are found in the supernatant, while relatively insoluble polymerized tubulin is found in the pellet. To assay the ability of PN2-3-containing polypeptides to destabilize microtubules, reactions comprising 15 μM tubulin were incubated in the presence of increasing amounts of GST-PN2-3 (1.9, 3.8, 7.5, and 15 μM) or GST-PN2-2 (15, 30, or 40 μM), or in the absence of CPAP-derived polypeptides (control; FIG. 4A).

[1] = biological target: T2, polymerized microtubules (bovine brain tubulin) (Bos taurus, UniProt P81947+Q6B856); test: Microtubule depolymerization assay (centrosomes omitted); type: biochemical; details: centrosomes absent; nocodazole 15 μM as positive control; data not shown
T2 construct: containing 125 μg bovine brain tubulin (Cytoskeleton, Denver, Colo.); purchased Cytoskeleton, Denver, Colo; host or cells: bovine brain (tissue-purified)
T2 sequence (P81947 whole entry): as the sequence (P81947 whole entry) above
T2 sequence (Q6B856 whole entry): as the sequence (Q6B856 whole entry) above
Method: Microtubule Depolymerization Assay
In this assay, centrosomes are omitted from the above reaction mixtures to determine the effects of various truncated GST-CPAP proteins or synthetic peptides on microtubule polymerization in the absence of centrosomes. Polymerized microtubules were stained using FITC-conjugated anti-α-tubulin monoclonal antibodies, as above. Nocodazole (15 μM) was added to some reactions mixtures as a positive control for microtubule depolymerization.

HeLa cells [2] = test: Cell-based assay for CPAP activity: microtubule reassembly in cold-treated transfected HeLa cells; design: species or system human; details: transiently transfected HeLa cells
Method: Cell Culture and Transfection
(§1) HeLa cells were maintained in DMEM supplemented with 10% fetal bovine serum. cDNA clones encoding different portions of CPAP were subcloned, in an appropriate reading frame, into the CMV promoter-driven EGFP-C1 expression vector (Clontech, Palo Alto, Calif.). Transient transfections were performed using Lipofectamine 2000 (Invitrogen, Carlsbad, Calif.) according to the manufacturer's instructions.
Cold Treatment, Immunofluorescence and Confocal Microscopy
HeLa cells were grown on coverslips for at least 24 hr. Cold treatment was performed by incubating the cells at 4° C. for 1 hr, then replacing the cold medium with medium warmed to 30° C. and incubating the cells for 2 min at 30° C. The cells were then fixed with 1% formaldehyde for 30 min at room temperature.
The fixed cells were incubated in the presence of anti-α-tubulin monoclonal antibodies (N356, Amersham, Piscataway, N.J.) and anti-γ-tubulin polyclonal antibodies (Sigma, Saint Louis, Mo.). Bound anti-α-tubulin monoclonal antibodies (N356) were detected with Alexa 568, a Texas Red-conjugated goat anti-mouse IgG, or Alexa 647, a far-red fluorophore-conjugated goat anti-mouse IgG. Bound anti-γ-tubulin polyclonal antibodies were detected with Alexa 568 (Molecular Probes Inc.). The resulting […] signals were detected using a laser scanning confocal system (MRC 1000, Bio-Rad Laboratories, Hercules, Calif.).
The effect of various polypeptides derived from CPAP was determined by evaluating the amounts of mitotic spindle formation in the transfected cells. Decreased mitotic spindle formation indicated the presence of an activity that inhibited microtubule formation or destabilized microtubules.

HeLa cells [3] = test: Flow cytometric cell cycle analysis of transfected HeLa cells; type: cell-based, human; details: transiently transfected HeLa cells
Method: as §1
Transfected HeLa cells were harvested 48 hr following transfection. Both the adherent cells and non-adherent cells present in the culture supernatants were collected and subjected to centrifugation. The resulting cell pellets were resuspended in PBS then fixed in 1% formaldehyde at 4° C. for 30 min. Following fixation, the cells were collected by centrifugation, washed, and resuspended in 70% cold ethanol. The resuspended cells were either stored at −20° C. overnight or immediately used for FACS analysis.
FACS analysis was performed by collecting the fixed cells by centrifugation and resuspending the cells in DNA staining solution (100 μg/ml propidium iodide, 0.1% Triton X, and 100 μM EDTA in PBS) for 30 min at room temperature. Cell cycle analysis was performed on a FACS Calibur (Becton-Dickinson, Mountain View, Calif.) with the signal gated to measure only GFP fluorescence. Ten thousand events were acquired and the percentages of cells in G0/G1, S, and G2/M were determined using the ModfitLT software (version 2.0, Verity Software House, Inc., Topsham, Me.). The apparent accumulation of cells with two genome copies (i.e., twice the genetic material of G0/G1 cells) is indicative of cell cycle arrest after DNA synthesis but prior to mitosis.

- Distribution of tubulin in the supernatant and pellet (in words) (Bovine brain α/β tubulin): little effect
- Disassembly of polymerized microtubules in the absence of centrosomes (in words) [1]: no such effect
B1: GST-PN2-2: GST fusion polypeptide with sub-region PN2-2 of PN2 (CPAP residues 191-310 per b157) (protein)
chain: LSLLPDDQSQKHRSPGNTTTGERATCCFPSYVYPDPTQEETYPSNILSHEQSNFCRTAHGDFVLTSKRASPNLFSEAQYQEAPVEKNNLKEENRNHPTGESILCWEKVTEQIQEANDKNL
modifications: left off: a dimerising Fc or GST

B2: GFP-PN2-3: GFP-tagged CPAP residues 311-422, expressed from a transfected vector (protein, UniProt Q9HC77 311-422, looked up, fragment)
chain: QKHDDSSEVANIEERPIKAAIGERKQTFEDYLEEQIQLEEQELKQKQLKEAEGPLPIKAKPKQPFLKRGEGLARFTNAKSKFQKGKESKLVTNQSTSEDQPLFKMDRQQLQR
modifications: GFP tag
notes: GFP-tagged CPAP residues 311-422, expressed from a transfected vector
- Inhibition of microtubule reassembly in cold-treated mitotic cells (in words) (HeLa cells [2]): significantly inhibited microtubule reassembly
- Cell cycle distribution by DNA content (in words) (HeLa cells [3]; propidium iodide, GFP-gated): progressive accumulation in G2/M
- Cell morphology (in words) (HeLa cells [3]; data not shown): change in morphology (to round cells)
- Cell proliferation (in words) (HeLa cells [3]; data not shown): stopped proliferating
